Data: patent US20230002493A1 (ORIONIS BIOSCIENCES, published 2023)
Positions count from the first letter of the chain named. Names and notes keep the numbering of the source.

B1: 2LIG99 VHH (VHH)
VHH: QVQLQESGGGLVQAGGSLRLSCTASGTIFSINRMDWFRQAPGKQRELVALITSDGTPAYADSAKGRFTISRDNTKKTVSLQMNSLKPEDTAVYYCHVSSGVYNYWGQGTQVTVSS
notes: Parental PD-L1 VHH; stands here as the molecule on which the mutations are counted; also called wild-type 2LIG99; not shown: C-terminal His-tag
B2: 2LIG99_OPT4 (VHH)
VHH: B1 VHH with Q1D, Q5V, A14P, T74S, K76N, K86R, Q110L
B3: 2LIG99_G56R (VHH)
VHH: B1 VHH with G55R
B4: 2LIG99_D55T (VHH)
VHH: B1 VHH with D54T
B5: P-1660: 2LIG99_OPT2 (Q1D_Q5V_A14P_T23A_T74S_K86R_Q110L) (VHH)
VHH: B1 VHH with Q1D, Q5V, A14P, T23A, T74S, K86R, Q110L
notes: not shown: C-terminal His-tag
B6: 2LIG99_D55K (VHH)
VHH: B1 VHH with D54K
B7: P-1664: 2LIG99_OPT6 (Q1D_Q5V_A14P_T23A_A63V_T74S_K76N_S79Y_K86R_Q110L) (VHH)
VHH: B1 VHH with Q1D, Q5V, A14P, T23A, A63V, T74S, K76N, S79Y, K86R, Q110L
notes: not shown: C-terminal His-tag
B8: 2LIG99_OPT5 (VHH)
VHH: B1 VHH with Q1D, Q5V, A14P, T74S, S79Y, K86R, Q110L
B9: 2LIG99_OPT1 (VHH)
VHH: B1 VHH with Q1D, Q5V, A14P, T74S, K86R, Q110L
B10: 2LIG189 VHH (VHH, not shown: small tags and cut ends)
VHH: QVQLQESGGGLVQAGGSLRLSCAASGKIFSGNDMGWYRQAPGKQRELVGIITSGGITDYADAVKGRFTISRDNAKNMMYLQMNSLKPEDTAVYYCNMRDRTIWWGQGTQVTVSS
notes: Parental PD-L1 VHH; stands here as the molecule on which the mutations are counted; also called wild-type 2LIG189
B11: 2LIG189 variant N32R (VHH, not shown: small tags and cut ends)
VHH: B10 VHH with N32R
B12: 2LIG189 variant D33H (VHH, not shown: small tags and cut ends)
VHH: B10 VHH with D33H
B13: 2LIG189 variant N32Q (VHH, not shown: small tags and cut ends)
VHH: B10 VHH with N32Q
B14: 2LIG189 variant M97V (VHH, not shown: small tags and cut ends)
VHH: B10 VHH with M97V
B15: 2LIG189_OPT3 (VHH)
VHH: B10 VHH with Q1D, Q5V, A14P, A74S, M78V, K86R, Q109L
B16: 2LIG189 variant M97I (VHH, not shown: small tags and cut ends)
VHH: B10 VHH with M97I
notes: also called M971 (so in the source)
B17: 2LIG189_OPT4 (VHH)
VHH: B10 VHH with Q1D, Q5V, A14P, A74S, M77T, M78V, K86R, Q109L
B18: 2LIG189 variant M97L (VHH, not shown: small tags and cut ends)
VHH: B10 VHH with M97L
B19: 2LIG189_OPT_N32R (VHH)
VHH: B10 VHH with Q1D, Q5V, A14P, N32R, A74S, M77T, M78V, K86R, Q109L
B20: 2LIG189_OPT_D33H (VHH)
VHH: B10 VHH with Q1D, Q5V, A14P, D33H, A74S, M77T, M78V, K86R, Q109L
B21: SEQ ID NO: 73 (2LIG189 humanization variant with deamidation and oxidation risk sites removed) (VHH)
VHH: B10 VHH with Q1D, Q5V, A14P, D33H, A74S, M77T, M78V, K86R, M97I, Q109L
notes: also called 2LIG189 second wave variant
B22: 2LIG189_OPT_N32R_M97V (VHH)
VHH: B10 VHH with Q1D, Q5V, A14P, N32R, A74S, M77T, M78V, K86R, M97V, Q109L
B23: 2LIG189_OPT_N32R_M97I (VHH)
VHH: B10 VHH with Q1D, Q5V, A14P, N32R, A74S, M77T, M78V, K86R, M97I, Q109L
B24: 2LIG99_OPT_D54G (VHH)
VHH: B1 VHH with Q1D, Q5V, A14P, D54G, T74S, K86R, Q110L
B25: P-2053: 2LIG99_OPT_D54G_A63V_K76N (Q1D_Q5V_A14P_D54G_A63V_T74S_K76N_K86R_Q110L) (VHH)
VHH: B1 VHH with Q1D, Q5V, A14P, D54G, A63V, T74S, K76N, K86R, Q110L
notes: not shown: C-terminal His-tag ('produced as described above')
B26: P-2051: 2LIG99_OPT_D54G_K76N (Q1D_Q5V_A14P_D54G_T74S_K76N_K86R_Q110L) (VHH)
VHH: B1 VHH with Q1D, Q5V, A14P, D54G, T74S, K76N, K86R, Q110L
notes: as for B25
B27: 2LIG99_OPT_D54G_A63V (VHH)
VHH: B1 VHH with Q1D, Q5V, A14P, D54G, A63V, T74S, K86R, Q110L
B28: P-2055: 2LIG99_OPT_D54G_K76N_S79Y (Q1D_Q5V_A14P_D54G_T74S_K76N_K86R_S79Y_Q110L) (VHH)
VHH: B1 VHH with Q1D, Q5V, A14P, D54G, T74S, K76N, S79Y, K86R, Q110L
notes: as for B25
B29: P-2054: 2LIG99_OPT_D54G_A63V_S79Y (Q1D_Q5V_A14P_D54G_A63V_T74S_K86R_S97Y_Q110L) (VHH)
VHH: B1 VHH with Q1D, Q5V, A14P, D54G, A63V, T74S, S79Y, K86R, Q110L
notes: The mutation list prints S97Y where the name prints S79Y; not shown: C-terminal His-tag ('produced as described above')
B30: P-2052: 2LIG99_OPT_D54G_S79Y (Q1D_Q5V_A14P_D54G_T74S_S79Y_K86R_Q110L) (VHH)
VHH: B1 VHH with Q1D, Q5V, A14P, D54G, T74S, S79Y, K86R, Q110L
notes: as for B25
B31: P-2056: 2LIG99_OPT_D54G_A63V_K76N_S79Y (Q1D_Q5V_A14P_D54G_A63V_T74S_K76N_K86R_S79Y_Q110L) (VHH)
VHH: B1 VHH with Q1D, Q5V, A14P, D54G, A63V, T74S, K76N, S79Y, K86R, Q110L
notes: as for B25
B32: P-1665: 2LIG99_D54G (VHH)
VHH: B1 VHH with D54G
notes: not shown: C-terminal His-tag

Biological target: T1, recombinant PD-L1 extracellular domain fused to the mouse IgG1 Fc domain (SinoBiologicals) (human; mouse, UniProt Q9NZQ7 19-238)
T1 construct: extracellular domain; also called human PD-L1-mouse Fc; PD-L1-mouse Fc protein; not shown: mouse IgG1 Fc domain
T1 sequence (Q9NZQ7 19-238): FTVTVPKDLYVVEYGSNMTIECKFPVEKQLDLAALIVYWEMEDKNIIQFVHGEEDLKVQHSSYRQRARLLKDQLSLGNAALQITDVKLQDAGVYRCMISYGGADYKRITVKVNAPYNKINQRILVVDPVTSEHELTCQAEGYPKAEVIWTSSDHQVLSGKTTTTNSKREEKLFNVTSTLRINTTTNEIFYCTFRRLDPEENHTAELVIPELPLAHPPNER
Test: BLI (Octet Red 96), PD-L1-mouse IgG1 Fc on AMQ biosensors, VHH dilution series
Procedure: (§1) Affinities of resulting variants were measured using the bio-layer interferometry technology on an Octet Red 96 instrument (ForteBio). In brief, recombinant PD-L1 extracellular domain fused to the mouse IgG1 Fc domain (SinoBiologicals) was immobilized on anti-murine IgG quantitation (AMQ) biosensors (ForteBio). Loaded sensors were incubated with a serial dilution of PD-L1 VHH variant, association and dissociation monitored and kinetic parameters were calculated using the Octet Data Analysis software v10 (ForteBio).

Binder	Kd [pM]	koff [s⁻¹]	kon [M⁻¹ s⁻¹]
B1	282	0.000447	1.58e+06
B2	452	0.000304	671000
B3	1010	0.000761	753000
B4	1480	0.000436	295000
B5	1480	0.000658	445000
B6	459	0.0007	1.53e+06
B7	10300	0.00124	121000
B8	124	7.55e-05	607000
B9	794	0.000704	886000

Biological target: T1, recombinant PD-L1 extracellular domain …
Test: as above
Remark: another data set of the same source
Procedure: as §1
(§2) The aspartic acid at position 1 was included to avoid the risk of pyroglutamate formation. […] Resulting mutants were purified and affinities measured as described in Example 1.

Binder	Kd [pM]	koff [s⁻¹]	kon [M⁻¹ s⁻¹]
B10	791	0.000148	187000
B11	< 1	< 1e-07	351000
B12	372	0.000157	421000
B13	125	8.84e-06	70500
B14	5.99	3.81e-07	63700
B15	4890	0.000942	193000
B16	7.41	3.45e-07	46500
B17	1740	0.000301	174000
B18	11.5	4.88e-07	42500

Biological target: T1, recombinant PD-L1 extracellular domain …
Test: BLI (Octet), PD-L1-mouse Fc on the sensor, VHH dilution series, as described above
Procedure: as §1

Binder	Kd [pM]	koff [s⁻¹]	kon [M⁻¹ s⁻¹]
B10	5410	0.00131	243000
B19	1940	0.000731	377000
B20	324	0.000145	446000
B21	555	0.000329	593000
B22	3380	0.00056	166000
B23	2320	0.000457	197000

Biological target: T1, recombinant PD-L1 extracellular domain …
Test: BLI (Octet), recombinant PD-L1-mouse Fc on the sensor, VHH dilution series
Procedure: as §1
The isomerization motif in all these variants was removed by the D54G mutation. Variants were produced as described above and affinity measured on an Octet instrument using the recombinant PD-L1-mouse Fc protein.

Binder	Kd [pM]	koff [s⁻¹]	kon [M⁻¹ s⁻¹]
B1	719	0.000721	1e+06
B24	553	0.000856	1.55e+06
B25	602	0.00112	1.87e+06
B26	358	0.000599	1.67e+06
B27	1160	0.00151	1.3e+06
B28	44.5	5.52e-05	1.24e+06
B29	427	0.000779	1.83e+06
B30	182	0.000279	1.54e+06
B31	735	0.000677	921000

Biological target: T1, recombinant PD-L1 extracellular domain …
Test: BLI (Octet Red 96); ratio of the printed KDs, variant over 2LIG189
Procedure: as §1, §2

Binder	Ratio KD
B12	0.47
B13	0.16
B14	0.01
B15	6.18
B16	0.01
B17	2.19
B18	0.01

Biological target: T1, recombinant PD-L1 extracellular domain …
Test: BLI (Octet Red 96); ratio of the printed KDs, 2LIG99 over variant
Procedure: as §1

Binder	Ratio KD
B2	0.62
B3	0.28
B4	0.19
B5	0.19
B6	0.61
B7	0.03
B8	2.27
B9	0.35

Biological target: T1, recombinant PD-L1 extracellular domain …
Test: BLI as in Example 1; reference not named, taken as parental 2LIG189
Procedure: as §1, §2

Binder	fold increase in affinity [fold]
B11	≥ 2
B12	≥ 2
B13	≥ 2
B14	≥ 2
B16	≥ 2
B18	≥ 2

Biological target: T1, recombinant PD-L1 extracellular domain …
Test: BLI (Octet Red 96), PD-L1-mouse IgG1 Fc on AMQ biosensors, VHH dilution series; KD and kdis printed ND
Procedure: as §1

Binder	kon [M⁻¹ s⁻¹]
B32	1.28e+06
